Laboratory results published in PMC2888057.

Target: KCNQ1 H363C in the cysteine-less background (human) (UniProt P51787)

“KCNE1 D76C in the cysteine-less, HA-tagged background (from UniProt P15382 1-129) (natural protein)” was tested. Which time constant of oxidant (0.1% H2O2)-induced current reduction, H363C with D76C did it give?
The time constant of oxidant (0.1% H2O2)-induced current reduction, H363C with D76C was 50 s.
